The source of these data is article PMC10325919, “A potential histone-chaperone activity for the MIER1 histone deacetylase complex” (Nucleic Acids Research, 2023).

Starred links: 1 amine or outer side, 2 acyl side, 3 side chain; linkers in the order of their positions; H or OH if unused. Non-standard residues stand in square brackets, D forms with d. No end group written: not given here. Lys(Me3) = C[N+](C)(C)CCCC[C@H](N)C(=O)O; Ethylenediamine = C(CN[*:2])N[*:1]; 5‑FAM = 5-carboxyfluorescein; GABA = NCCCC(=O)O

For assay [1], the target named is Full length HDAC1(aa:1–482) (UniProt Q13547 1-482). Kind of assay: co-IP + SEC; FLAG-tagged bait transfected in HEK293F (with untagged partners where stated); lysate on anti-FLAG M2 resin, washed in 50 mM Tris/HCl pH 7.5, 50 mM potassium acetate, eluted by TEV protease, then Superdex S200 gel filtration; fractions on SDS-PAGE, bands identified by mass spectrometry. The note with it: partners not purified. Background: Size exclusion chromatography separates by hydrodynamic size, large species first.
Full length HDAC1(aa:1–482), sequence (Q13547 whole entry): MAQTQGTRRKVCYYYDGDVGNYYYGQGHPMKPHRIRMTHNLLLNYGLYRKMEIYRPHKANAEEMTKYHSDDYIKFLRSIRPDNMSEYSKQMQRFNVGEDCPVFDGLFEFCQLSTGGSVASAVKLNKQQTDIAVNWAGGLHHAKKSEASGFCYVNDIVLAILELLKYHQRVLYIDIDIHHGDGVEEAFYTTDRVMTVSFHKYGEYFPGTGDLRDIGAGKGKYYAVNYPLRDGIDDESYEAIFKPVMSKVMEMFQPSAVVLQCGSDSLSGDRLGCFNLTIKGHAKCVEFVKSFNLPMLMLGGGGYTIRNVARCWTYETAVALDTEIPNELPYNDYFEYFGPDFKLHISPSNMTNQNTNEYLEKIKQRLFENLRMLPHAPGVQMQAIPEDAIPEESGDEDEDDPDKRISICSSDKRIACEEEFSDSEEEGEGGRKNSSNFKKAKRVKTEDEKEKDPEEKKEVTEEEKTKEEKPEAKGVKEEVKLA

Assay [2] addresses T1, E. coli expressed BAHD1(aa:588–780) (UniProt Q8TBE0 588-780).
T1 construct: BAHD1, BAH domain, aa 588-780; also called BAH domain of BAHD1; source: E. coli expressed
T1 sequence (looked up): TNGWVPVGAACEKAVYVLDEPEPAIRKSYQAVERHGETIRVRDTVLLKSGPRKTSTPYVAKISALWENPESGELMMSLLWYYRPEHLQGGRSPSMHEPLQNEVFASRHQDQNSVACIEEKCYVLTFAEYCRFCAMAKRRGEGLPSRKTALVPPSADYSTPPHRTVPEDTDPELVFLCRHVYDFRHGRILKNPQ
Kind of assay: fluorescence polarisation; 5 nM 5-FAM labelled histone peptide, BAHD1(aa:588–780) 0–142 μM, 25 mM Tris/Cl pH 7.5, 50 mM NaCl, 15 min at 37°C; one-site binding model. The note with it: both partners purified.

B1: FLAG-tagged MIER1 ELM2-SANT (aa:171–350) (domain or fragment, UniProt Q8N108 171-350, looked up)
chain: DYIPSEDWKKEIMVGSMFQAEIPVGICRYKENEKVYENDDQLLWDPEYLPEDKVIIFLKDASRRTGDEKGVEAIPEGSHIKDNEQALYELVKCNFDTEEALRRLRFNVKAAREELSVWTEEECRNFEQGLKAYGKDFHLIQANKVRTRSVGECVAFYYMWKKSERYDFFAQQTRFGKKKY
notes: The tag holds the protein on the anti-FLAG resin; it is cut off by TEV protease for elution, before gel filtration and SEC-MALS; also called isolated ELM2-SANT domain; source: HEK293F, co-transfected with HDAC1; anti-FLAG resin, TEV, Superdex S200; not shown: 10xHis-3xFLAG, N-terminal, kept
B1: in assay [1], the binding result was “binds”.

B2: H3 16–35 K27me3 peptide (peptide)
peptide: PRKQLATKAAR[Lys(Me3)]SAPATGG-{Ethylenediamine-GABA-5‑FAM}
notes: Histone H3 tail peptide, named H3 16–35; also called H3 histone tail bearing a K27me3 modification; source: synthetic peptide, bought: Cambridge Research Biochemicals
For B2, in assay [2], the binding result is given as “binds”.
